Source: patent publication US20100285037A1 (ARCA BIOPHARMA, published 2010)
Blank lines part the entries; values can stand above or below the binder they belong to.

Columns and labels:
[1] = molecular target: T1, CLL-1-ECD-V5His recombinant protein (human, UniProt Q5QGZ9 67-265); experiment: SPR (BIAcore), mAb captured via anti-mouse mAb, antigen in solution, 25° C.; KD = kd/ka
T1 construct: also called recombinant CLL-1 protein; CLL-1 V5-6His protein; not shown: C-terminal V5-His tag
T1 sequence: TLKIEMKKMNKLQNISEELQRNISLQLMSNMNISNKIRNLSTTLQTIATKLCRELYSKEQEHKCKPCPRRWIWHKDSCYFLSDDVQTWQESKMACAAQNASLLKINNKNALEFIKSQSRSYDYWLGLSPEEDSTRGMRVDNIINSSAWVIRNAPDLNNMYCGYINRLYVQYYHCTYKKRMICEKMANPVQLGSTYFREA
Method: (§1) Kinetic rate constants (kₐ and kd) were determined using surface plasmon resonance and affinities (KD) were then calculated from the rate constants (kd/kₐ). Surface plasmon resonance was carried out on a BlAcore system (Biacore International AB, Uppsala, Sweden). Chimeric monoclonal antibodies (21.16 or 1075.7) were diluted to 2 μg/ml and then captured on the biosensor surface using an anti-mouse mAb. Antigen was diluted to a starting concentration of 46 nM and tested for binding to the mAb samples using a 3-fold dilution series. Each of 5 concentrations was tested twice except the highest concentration which was tested 5 times in total, two times with a short dissociation of 300 seconds followed by three times with a dissociation of 60 minutes. The data sets from the long dissociation experiments were globally fit with the shorter association experiments to determine binding constants for the interactions. The analysis was carried out in HBS, pH 7.4 buffer at 25° C. (Canziani et al, Anal. Biochem. 352:301-307 (2004)).

[2] = molecular target: T1, CLL-1-ECD-V5His recombinant protein; experiment: SPR (BIAcore), mAb captured via anti-mouse mAb, antigen in solution, 25° C.
Method: as §1

[3] = molecular target: T2, CLL-1 on cells (HEK293 cells stably transfected with CLL-1; HL-60 and other AML cells) (human, UniProt Q5QGZ9 1-265); experiment: cell-based or functional assay
T2 sequence: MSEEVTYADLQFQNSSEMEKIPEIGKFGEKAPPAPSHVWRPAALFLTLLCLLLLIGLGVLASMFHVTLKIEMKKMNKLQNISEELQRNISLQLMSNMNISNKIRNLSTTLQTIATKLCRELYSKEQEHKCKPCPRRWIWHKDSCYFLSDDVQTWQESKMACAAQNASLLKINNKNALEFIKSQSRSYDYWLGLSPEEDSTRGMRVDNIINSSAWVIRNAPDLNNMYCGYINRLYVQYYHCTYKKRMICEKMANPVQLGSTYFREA

Kd [1]: 360 pM | koff [2]: 0.00015 s⁻¹ | kon [2]: 417000 M⁻¹ s⁻¹
B1: chimeric anti-CLL-1 monoclonal antibody 1075.7 (antibody, human IgG1, V domains shown)
VH: DIQLQESGPGLVKPSQSLSLTCSVTGYSITSAYYWNWIRQFPGNKLEWMGYISYDGRNNYNPSLKNRISITRDTSKNQFFLKLNSVTTEDTATYYCAKEGDYDVGNYYAMDYWGQGTSVTVSS
VL: ENVLTQSPAIMSASPGEKVTMTCRASSNVISSYVHWYQQRSGASPKLWIYSTSNLASGVPARFSGSGSGTSYSLTISSVEAEDAATYYCQQYSGYPLTFGAGTKLELKR
notes: No cleavage site is stated; also called mAb 1075.7; clone #1075.7

kon [2]: 554000 M⁻¹ s⁻¹
B2: chimeric anti-CLL-1 monoclonal antibody 21.16 (antibody, human IgG1, V domains shown)
VH: QVQLQQPGAELVKPGTSVKLSCKASGYTFTRYWMHWVKQRPGQGLEWIGMIHPSSGSTSYNEKVKNKATLTVDRSSTTAYMQLSSLTSEDSAVYYCARDGDYYYGTGDYWGQGTTLTVSS
VL: QIVLSQSPAILSASPGEKVTMTCRASSSINYMHWYQQKPGSSPKPWIFATSNLASGVPSRFSGSGSGTSYSLTISRVEAEDAATYYCQQWRSDRALTFGAGTKLELIR
notes: No cleavage site is stated; also called mAb 21.16; VL1VH1
EC50 of complement-dependent cytotoxicity (CDC) on OCI-AML5 cells [3]: ~0.0071 µg/mL | EC50 of ex vivo cytotoxicity on patient AML sample 'M1' [3]: 0.284 µg/mL | EC50 of ex vivo cytotoxicity on patient AML sample 'M5a' [3]: 0.146 µg/mL | complement-dependent cytotoxicity (CDC), EC50, HEK293 cells expressing CLL-1 [3]: ~0.088 µg/mL
